Results as given in US20210054084A1 (published 2021).

Target: T1, recombinant human CD25 his tagged (UniProt P01589 22-213)
T1 chain: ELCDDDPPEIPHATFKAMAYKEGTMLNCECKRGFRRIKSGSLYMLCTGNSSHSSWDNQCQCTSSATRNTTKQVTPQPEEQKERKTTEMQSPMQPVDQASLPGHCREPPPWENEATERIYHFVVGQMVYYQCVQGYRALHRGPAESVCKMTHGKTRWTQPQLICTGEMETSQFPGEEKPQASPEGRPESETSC
Test: BLI (Octet)

Kd: 0.8 nM
B1: Antibody 1 as human IgG1 expressed in mammalian cells (antibody, V domains shown)
VH: EVQLVESGGGLIQPGGSLRLSCAASGFTLDSYGVSWVRQAPGKGLEWVGVTSSGGSAYYADSVKGRFTISRDNSKNTLYLQMNSLRAEDTAVYYCARDRYVYTGGYLYHYGMDLWGQGTLVTVSS
VL: DIQMTQSPSSLSASVGDRVTITCRASQSISDYLAWYQQKPGKVPKLLIYAASTLPFGVPSRFSGSGSGTDFTLTISSLQPEDVATYYCQGTYDSSDWYWAFGGGTKVEIK
